Laboratory results: patent US20080280346A1 (published 2008)

Biological target: T1, α-amylase
T1 construct: Coated on ELISA plates at 200 µg/ml in PBS
Assay: ELISA, plate coated with α-amylase, dimer compared with monomeric VamyHlyA

B1: VamyZHlyA (VHH)
VHH: QVQLVESWGGSVQAGGSLRLSCTAPGFTSNSCRMDWYRQAAGKQREWVSSISTDGRTSYADSVKGRFTISKDKAKDTVYLQMNSLKPEDTAIYYCAVRTNGYRPQSHEFRYWGPGTQVTVSS
modifications: Non-covalent homodimer through the GCN4 leucine zipper; one monomer chain is given.
notes: also called dimeric VHH-HlyA polypeptide; VHH-ZEHlyA hybrid
  fold increase in functional affinity (avidity) against the monomeric form: 10 fold
